Source: paper PMC5314774 (Nucleic Acids Research, 2016)

Tests used:
[1] = biological target: T1, LAGE3 (bacterial, 6xHIS-GST removed) (human, UniProt Q14657 1-143); experiment: SEC
T1 sequence: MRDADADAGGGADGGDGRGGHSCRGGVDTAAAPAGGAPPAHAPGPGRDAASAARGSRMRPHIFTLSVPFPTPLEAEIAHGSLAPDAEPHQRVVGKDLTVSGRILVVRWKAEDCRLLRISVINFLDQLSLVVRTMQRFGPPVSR

[2] = biological target: 4-subunit KEOPS complex (OSGEP, PRPK, TPRKB and LAGE3) (human, UniProt Q9NPF4;Q96S44;Q9Y3C4;Q14657); experiment: SEC-MALS

B1: C14ORF142 (bacterial, GST removed) (natural protein)
chain: MELLGEYVGQEGKPQKLRVSCEAPGDGDPFQGLLSGVAQMKDMVTELFDPLVQGEVQHRVAAAPDEDLDGDDEDDAEDENNIDNRTNFDGPSAKRPKTPS
B1 was tested, and the “stoichiometry N” value [1] was 1.

B2: C14ORF142 (insect cells, polycistronic KEOPS vector) (natural protein)
chain: B1 chain
With B2 the “stoichiometry N” value [2] was 1.
